T1: human full length TRF1 fused to LexA (LexA-TRF1) (human, UniProt P0A7C2 1-202; P54274 2-439)
T1 construct: The construct comes from Bianchi et al. 1997; also called LexA-FL
T1 sequence (looked up): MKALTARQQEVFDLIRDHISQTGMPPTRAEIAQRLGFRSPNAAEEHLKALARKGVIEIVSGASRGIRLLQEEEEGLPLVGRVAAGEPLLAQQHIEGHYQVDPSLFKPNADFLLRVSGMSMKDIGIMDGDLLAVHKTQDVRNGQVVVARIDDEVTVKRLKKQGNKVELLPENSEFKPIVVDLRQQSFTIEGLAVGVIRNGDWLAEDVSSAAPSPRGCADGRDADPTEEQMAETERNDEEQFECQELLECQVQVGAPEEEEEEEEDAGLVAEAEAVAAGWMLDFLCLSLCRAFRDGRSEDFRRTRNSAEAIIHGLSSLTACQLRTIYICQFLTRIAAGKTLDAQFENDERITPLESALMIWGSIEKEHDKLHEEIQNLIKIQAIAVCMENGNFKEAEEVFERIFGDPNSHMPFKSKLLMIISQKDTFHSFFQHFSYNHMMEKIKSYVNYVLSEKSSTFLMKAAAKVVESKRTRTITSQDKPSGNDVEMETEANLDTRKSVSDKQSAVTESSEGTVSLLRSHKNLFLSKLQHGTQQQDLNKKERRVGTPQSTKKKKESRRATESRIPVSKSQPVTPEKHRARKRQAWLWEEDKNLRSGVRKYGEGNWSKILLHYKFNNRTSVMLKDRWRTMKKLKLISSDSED

B1: GAL4 activation domain (GAD) (alone) (other, UniProt P04386 768-881, looked up)
chain: ANFNQSGNIADSSLSFTFTNSSNGPNLITTQTNSQALSQPIASSNVHDNFMNNEITASKIDDGNNSKPLSPGWTDQTAYNAFGITTGMFNTTTMDDVYNYLFDDEDTPPNPKKE
notes: Control
B2: [TTAGGG]12 duplex, 142 bp HindIII-Asp718 fragment of pTH12 (dsDNA)
DNA 1: TTAGGGTTAGGGTTAGGGTTAGGGTTAGGGTTAGGGTTAGGGTTAGGGTTAGGGTTAGGGTTAGGGTTAGGG
DNA 2: CCCTAACCCTAACCCTAACCCTAACCCTAACCCTAACCCTAACCCTAACCCTAACCCTAACCCTAACCCTAA

Columns and labels:
[1] = molecular target: T1, human full length TRF1 fused to LexA …; test: yeast two-hybrid, β-galactosidase; GAD without tankyrase sequences
Protocol: TR1L-4 and TR1L-12 were isolated from a human liver two-hybrid cDNA library (Clontech) created in pGad10. The library was screened with human full length TRF1 cDNA fused to LexA (LexA-TRF1) [Bianchi et al., EMBO J., 16:1785-1794 (1997)] in the yeast strain L40 as described [Hollenberg et al., Mol. Cell Biol., 15:3813-3822 (1995)]. Two-hybrid analysis was performed as described by Bianchi et al. [EMBO J., 16:1785-1794 (1997)]. β-galactosidase assays for the two-hybrid analysis was performed as described by Bianchi et al. [EMBO J., 16:1785-1794 (1997)].
Two-hybrid analysis was used to determine the interacting domains between tankyrase and TRF1. […] To determine the tankyrase-interacting domain in TRF1, two-hybrid analysis was performed with the 10-ANK repeat domain of TR1L-12 fused to the GAL4 activation domain (GAD-tankyrase) and full-length and deletion constructs of TRF1 fused to LexA. […] As observed previously, the amino-terminal acidic domain of TFR1 (LexAd68-C) activated transcription even in the absence of tankyrase sequences in the GAD fusion partner. […] Deletion of the acidic domain of TRF1 (ΔN66-LexA) abolished the interaction with GAD-tankyrase.

TRF1 (hTRF1) = TRF1 (hTRF1) (Homo sapiens, UniProt P54274 P54274:2-439); test: EMSA; 13-120 ng TRF1 per 20 ul, 1 ng probe, 20 mM Hepes-KOH pH 7.9, 100 mM KCl, 100 ng sheared E. coli DNA, room temperature; slight nonspecific stimulation by tankyrase without NAD+; settings: tags: baculovirus-derived (Bianchi et al. 1997); chain copies: 2 (homodimer, stated; several dimers per probe at high concentration); label: end-labeled
Protocol: Biol. 12:4834 (1992)] containing 12 tandem TTAGGG repeats. Baculovirus-derived TRF1 (13 to 120 ng) [Bianchi et al. EMBO J. 16:1785 (1997)] was incubated for 30 minutes at room temperature in a 20 μl reaction containing 20 mM Hepes-KOH (pH 7.9), 100 mM KCL, 0.5 mM DTT, 5% glycerol, 0.1% NP40, 100 ng sheared E. coli DNA, 100 ng β-casein, and 1 ng of labeled probe. In some cases, reactions were supplemented with NAD⁺ (0.2 mM) and baculovirus-derived human tankyrase (2.5 to 200 ng). Samples were fractionated on a 0.7% agarose gel run in 0.1× TBE (8.9 mM Tris-base, 8.9 mM Boric acid, and 0.2 mM EDTA) at 130 volts for 1 hour at room temperature. Gels were dried onto Whatman DE81 paper and autoradiographed.

Row | Binder | binding result [1] | binding result (TRF1 (hTRF1))
1 | B1 | no binding | –
2 | B2 | – | binds

— patent US20020076795A1, “Novel TRF1 binding protein, methods of use thereof” (published 2002)
